Assay results as given in publication PMC9800720, “Size-advantage of monovalent nanobodies against the macrophage mannose receptor for deep tumor penetration and tumor-associated macrophage targeting” (Theranostics, 2023).

Target: T1, recombinant murine MMR protein (Macrophage Mannose Receptor, CD206) (Mus musculus, UniProt Q61830)
T1 construct: Macrophage Mannose Receptor (MMR, CD206), mouse, recombinant protein of R&D systems, catalogue 2535-MM; also called recombinant mouse MMR protein; MMR Ag; source: bought: R&D systems (2535-MM)
Assay: SPR; Biacore T200; recombinant murine MMR immobilised on a CM5 chip by amine coupling at pH 5; Nbs injected in three-fold dilutions from 100 to 0.4 nM; 25 °C, HEPES buffered saline, 30 µL/min; association 180 s, dissociation 600 s; table gives two sets of rate constants (ka1/kd1, ka2/kd2); affinity of the bivalent Nb called apparent
Conditions: both partners purified

T1 sequence (Q61830 20-1388): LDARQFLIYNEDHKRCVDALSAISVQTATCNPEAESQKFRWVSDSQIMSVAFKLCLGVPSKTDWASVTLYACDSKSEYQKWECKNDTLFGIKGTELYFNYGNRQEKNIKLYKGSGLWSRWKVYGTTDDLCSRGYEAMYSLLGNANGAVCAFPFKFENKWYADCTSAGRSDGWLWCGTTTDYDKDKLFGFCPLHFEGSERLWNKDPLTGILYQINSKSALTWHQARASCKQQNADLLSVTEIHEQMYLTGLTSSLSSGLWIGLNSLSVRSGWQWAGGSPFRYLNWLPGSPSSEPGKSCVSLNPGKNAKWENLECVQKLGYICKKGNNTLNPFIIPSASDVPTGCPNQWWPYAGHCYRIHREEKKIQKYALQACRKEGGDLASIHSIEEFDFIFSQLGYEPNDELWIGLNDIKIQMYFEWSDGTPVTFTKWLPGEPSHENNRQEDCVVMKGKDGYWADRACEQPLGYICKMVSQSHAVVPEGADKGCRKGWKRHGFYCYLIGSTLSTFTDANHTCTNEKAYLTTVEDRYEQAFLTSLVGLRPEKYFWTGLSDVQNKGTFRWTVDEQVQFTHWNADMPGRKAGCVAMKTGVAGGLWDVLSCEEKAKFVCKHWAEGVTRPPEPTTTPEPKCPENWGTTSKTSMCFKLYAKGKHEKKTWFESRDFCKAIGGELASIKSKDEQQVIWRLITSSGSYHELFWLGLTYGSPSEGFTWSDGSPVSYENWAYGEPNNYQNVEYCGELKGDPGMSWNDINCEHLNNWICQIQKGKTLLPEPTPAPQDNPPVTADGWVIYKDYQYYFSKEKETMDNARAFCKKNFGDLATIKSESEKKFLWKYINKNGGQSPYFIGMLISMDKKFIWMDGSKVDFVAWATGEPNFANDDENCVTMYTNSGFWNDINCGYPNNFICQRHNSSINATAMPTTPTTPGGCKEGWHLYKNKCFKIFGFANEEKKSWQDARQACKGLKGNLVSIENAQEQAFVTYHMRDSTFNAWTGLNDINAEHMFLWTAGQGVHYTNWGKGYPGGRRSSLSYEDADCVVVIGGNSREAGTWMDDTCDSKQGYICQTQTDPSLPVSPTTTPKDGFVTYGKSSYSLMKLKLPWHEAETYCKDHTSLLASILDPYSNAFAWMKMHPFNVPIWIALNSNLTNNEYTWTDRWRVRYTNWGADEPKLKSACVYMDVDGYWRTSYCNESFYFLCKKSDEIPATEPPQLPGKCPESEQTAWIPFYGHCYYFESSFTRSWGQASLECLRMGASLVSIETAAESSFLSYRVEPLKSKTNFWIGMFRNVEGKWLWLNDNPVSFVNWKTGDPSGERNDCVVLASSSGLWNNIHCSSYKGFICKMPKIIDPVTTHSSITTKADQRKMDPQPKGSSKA

B1: monovalent anti-Macrophage Mannose Receptor nanobody, (m)anti-MMR Nb (VHH)
VHH: QVQLQESGGGLVQPGGSLRLSCAASGNIFSINAIGWYRQAPGKQRELVATITLSGSTNYADSVKGRFSISRDNAKNTVYLQMNSLKPEDTAVYYCNANTYSDSDVYGYWGQGTQVTVSS
notes: anti-MMR nanobody MMRCl1; also called (m)anti-MMR Nbs; MMRCl1; source: E. coli WK6, periplasmic extract, purified (Ni-NTA, SEC); not shown: His6, C-terminal, kept
- Kd: 25 nM
